# Test results: patent US20190142860A1, “NUCLEIC ACID BASED TIA-1 INHIBITORS” (Aquinnah Pharmaceuticals, Inc., priority 2015, published 2019)
# Key:
# [1] = biological target: Nucleolysin TIA-1 (endogenous mouse TIA1) (mouse) (UniProt P52912); assay: TIA1 IP-MS, tau KO 1 cortex
# [2] = biological target: Nucleolysin TIA-1 (endogenous mouse TIA1) (mouse) (UniProt P52912); assay: TIA1 IP-MS, WT1 cortex
# [3] = biological target: Nucleolysin TIA-1 (endogenous mouse TIA1) (mouse) (UniProt P52912); assay: TIA1 IP-MS, tau KO 3 cortex
# [4] = biological target: Nucleolysin TIA-1 (endogenous mouse TIA1) (mouse) (UniProt P52912); assay: TIA1 IP-MS, tau KO 2 cortex
# [5] = biological target: Nucleolysin TIA-1 (endogenous mouse TIA1) (mouse) (UniProt P52912); assay: TIA1 IP-MS, WT2 cortex
# [6] = biological target: Nucleolysin TIA-1 (endogenous mouse TIA1) (mouse) (UniProt P52912); assay: TIA1 IP-MS, WT3 cortex
# UniProt P52912, sequence (P52912 whole entry): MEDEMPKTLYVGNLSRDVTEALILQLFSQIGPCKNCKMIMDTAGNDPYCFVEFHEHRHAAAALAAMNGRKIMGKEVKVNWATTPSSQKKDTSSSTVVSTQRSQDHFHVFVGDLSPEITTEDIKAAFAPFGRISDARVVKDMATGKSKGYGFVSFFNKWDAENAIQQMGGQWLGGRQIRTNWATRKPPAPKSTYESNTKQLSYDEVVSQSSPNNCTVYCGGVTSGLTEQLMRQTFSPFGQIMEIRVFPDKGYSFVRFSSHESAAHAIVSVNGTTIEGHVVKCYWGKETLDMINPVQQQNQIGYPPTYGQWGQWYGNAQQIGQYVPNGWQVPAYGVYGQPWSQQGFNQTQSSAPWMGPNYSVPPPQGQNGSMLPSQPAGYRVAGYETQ
Substance,total ion current (normalized to TIA1 = 1000) [1],total ion current (normalized to TIA1 = 1000) [2],total ion current (normalized to TIA1 = 1000) [3],total ion current (normalized to TIA1 = 1000) [4],total ion current (normalized to TIA1 = 1000) [5],total ion current (normalized to TIA1 = 1000) [6]
26S proteasome non-ATPase regulatory subunit 8 (from UniProt Q9CX56 1-353),4.11,80.3,0,0,0,0
AP-2 complex subunit alpha-2 (from UniProt P17427 1-938),0,0,0,186,128,68.8
"ATP synthase subunit O, mitochondrial (from UniProt Q9DB20 24-213)",0,0,0,0,375,0
"ATP-dependent 6-phosphofructokinase, platelet type (from UniProt Q9WUA3 1-784)",0,0,0,67.1,20.2,0
"Aconitate hydratase, mitochondrial (from UniProt Q99KI0 28-780)",0,0,0,421,818,164
Alpha-actinin-4 (from UniProt P57780 1-912),0,0,0,28.8,77,14.5
Calcium-binding mitochondrial carrier protein Aralar1 (from UniProt Q8BH59 2-677),0,0,0,231,181,21.6
Catenin beta-1 (from UniProt Q02248 2-781),123,9.46,0,0,0,0
Clathrin light chain A (from UniProt O08585 1-235),0,0,0,29,90.8,145

# Results, then the substance that gave them:
total ion current (normalized to TIA1 = 1000) [1],total ion current (normalized to TIA1 = 1000) [2],total ion current (normalized to TIA1 = 1000) [3],total ion current (normalized to TIA1 = 1000) [4],total ion current (normalized to TIA1 = 1000) [5],total ion current (normalized to TIA1 = 1000) [6],Substance
0,0,0,15.7,86,0,28 kDa heat- and acid-stable phosphoprotein (from UniProt Q3UHX2 1-181)
0,0,0,0,52.7,0,"39S ribosomal protein L46, mitochondrial (from UniProt Q9EQI8 1-283)"
0,0,0,70.3,175,18.1,"Acetyl-CoA acetyltransferase, mitochondrial (from UniProt Q8QZT1 31-424)"
0,0,0,0,113,0,Amphiphysin (from UniProt Q7TQF7 1-686)
0,0,1120,71.9,42.4,44.8,Annexin A7 (from UniProt Q07076 1-463)
0,0,0,136,204,17,"Aspartate aminotransferase, cytoplasmic (from UniProt P05201 2-413)"
25.8,16.7,0,0,0,0,Band 4.1-like protein 2 (from UniProt O70318 2-988)
0,0,0,0,92.1,0,CaM kinase-like vesicle-associated protein (from UniProt Q3UHL1 1-512)
0,0,0,144,274,0,Calcium-transporting ATPase (from UniProt Q6Q477 1-1205)
0,0,0,58.4,38.6,50.1,Carbonic anhydrase 2 (from UniProt P00920 2-260)
0,0,0,108,234,106,Centromere protein V (from UniProt Q9CXS4 1-252)
0,0,0,45.2,58.5,0,Clathrin heavy chain 1 (from UniProt Q68FD5 2-1675)
